{
  "source": "patent US20230287338A1",
  "about": "(MINERVA BIOTECHNOLOGIES, published 2023)",
  "key": {"[1]": {"target": "T1, NME7-AB (recombinant human NME7 comprising essentially the NDPK A and B domains, expressed in E. coli) (human, UniProt Q9Y5B8 92-376)", "T1 construct": "Monomeric; purified over NTA-Ni and by size exclusion; the purification described uses Ni-NTA; also called recombinant NME7; NME7 (NME7-AB construct); not shown: a Strep Tag II version was al", "T1 sequence": "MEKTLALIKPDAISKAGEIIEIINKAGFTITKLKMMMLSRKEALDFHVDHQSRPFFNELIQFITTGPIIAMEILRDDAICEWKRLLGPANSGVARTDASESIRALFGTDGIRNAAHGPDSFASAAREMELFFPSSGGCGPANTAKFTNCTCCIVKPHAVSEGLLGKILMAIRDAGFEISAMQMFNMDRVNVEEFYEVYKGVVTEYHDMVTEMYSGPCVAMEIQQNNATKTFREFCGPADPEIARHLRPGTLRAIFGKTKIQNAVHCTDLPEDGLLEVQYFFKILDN", "experiment": "sandwich ELISA, NME7-AB held on plate-bound PSMGFR, detection with HRP labeled anti-His-tag antibody", "procedure": "(§1) The PSMGFR peptide bearing a C-terminal Cysteine (PSMGFR-Cys) was covalently coupled to BSA using Inject Maleimide activated BSA kit (Thermo Fisher). PSMGFR-Cys coupled BSA was diluted to 10 ug/mL in 0.1M carbonate/bicarbonate buffer pH 9.6 and 50 uL was added to each well of a 96 well plate. After overnight incubation at 4° C., the plate was wash twice with PBS-T and a 3% BSA solution was added to block remaining binding site on the well. After 1 h at RT the plate was washed twice with PBS-T and NME7, diluted in PBS-T+1% BSA, was added at different concentrations. After 1 h at RT the plate was washed 3× with PBS-T and anti-NM23-H7 (B-9, Santa Cruz Biotechnology), diluted in PBS-T+1% BSA, was added at 1/500 dilution. […] After 1 h at RT the plate was washed 3× with PBS-T and binding of NME7 was measured at 415 nm using a ABTS solution (Pierce). […]\n(§2) After 1 h at RT the plate was washed 3× with PBS-T and HisTagged PSMGFR peptide (PSMGFR-His) or biotinylated PSMGFR peptide (PSMGFR-biotin), diluted in PBS-T+1% BSA, was added at different concentration. […] After 1 h at RT the plate was washed 3× with PBS-T and binding of PSMGFR peptide to NME7 already bound to another PSMGFR peptide (which could not signal by anti-His antibody or by streptavidin) coupled BSA was measured at 415 nm using a ABTS solution (Pierce)."}, "[2]": {"target": "T1, NME7-AB (recombinant human NME7 …)", "experiment": "gold nanoparticle aggregation assay", "procedure": "Gold nanoparticles of a diameter of 30.0 nm were coated with an NTA-SAM surface according to Thompson et al. (ACS Appl. Mater. Interfaces, 2011, 3 (8), pp 2979-2987). The NTA-SAM coated gold nanoparticles were then activated with an equal volume of 180 uM NiSO₄, incubated for 10 min at room temperature, washed, and resuspended in a 10 mM phosphate buffer (pH 7.4). The gold nanoparticles were then loaded with PSMGFR N-10 peptide ([…]-HHHHHH (SEQ ID NO:112)) at 0.5 uM final concentration, and incubated at room temperature for 10 min Recombinant NME7-AB protein expressed and purified from E. coli was added free in solution at the concentrations indicated. When particle-immobilized proteins bind to each other, or simultaneously bind to two different peptides on two different particles, the particle solution color changes from pink/red to purple/blue. If the protein added free in solution causes particle aggregation, it is strong evidence that the free protein dimerizes the cognate peptide, since binding to a single peptide would not induce two or more particles to be brought into close proximity to each other.\nThe NME7-AB is added free in solution at the concentrations indicated. Solution color change from pink to purple/blue from particle aggregation indicates binding between the MUC* peptide on the particles and NME7 free in solution. […]"}, "[3]": {"target": "T1, NME7-AB (recombinant human NME7 …)", "experiment": "ELISA, carrier-coupled PSMGFR-Cys on plate", "procedure": "The PSMGFR peptide bearing a C-terminal Cysteine (PSMGFR-Cys) was covalently coupled to BSA using Inject Maleimide activated BSA kit (Thermo Fisher). PSMGFR-Cys coupled BSA was diluted to 10 ug/mL in 0.1M carbonate/bicarbonate buffer pH 9.6 and 50 uL was added to each well of a 96 well plate. After overnight incubation at 4° C., the plate was wash twice with PBS-T and a 3% BSA solution was added to block remaining binding site on the well. After 1 h at RT the plate was washed twice with PBS-T and NME7, diluted in PBS-T+1% BSA, was added at different concentrations. After 1 h at RT the plate was washed 3× with PBS-T and anti-NM23-H7 (B-9, Santa Cruz Biotechnology), diluted in PBS-T+1% BSA, was added at 1/500 dilution. After 1 h at RT the plate was washed 3× with PBS-T and goat anti mouse-HRP, diluted in PBS-T+1% BSA, was added at 1/3333 dilution. After 1 h at RT the plate was washed 3× with PBS-T and binding of NME7 was measured at 415 nm using a ABTS solution (Pierce)."}, "[4]": {"target": "T1, NME7-AB (recombinant human NME7 …)", "experiment": "sandwich ELISA, NME7-AB held on plate-bound PSMGFR, detection with streptavidin", "procedure": "as §1, §2"}},
  "note": "Groups on a side chain read outwards from the residue. No end group written: not given here. maleimide = maleimide group on the activated BSA carrier, coupling the C-terminal Cys",
  "data": [
    {"binder": "histidine-tagged MUC1* extra cellular domain peptide (His-tagged PSMGFR sequence) (also called PSMGFR-His; HisTagged PSMGFR peptide) peptide: GTINVHDVETQFNQYKTEAASRYNLTISDVSVSDVPFPFSAQSGAHHHHHH", "values": [
      {"measurement": "binding result", "setting": "[1]", "result": "binds"}
    ]},
    {"binder": "QFNQYKTEAASRYNLTISDVSVSDVPFPFSAQSGAHHHHHH (loaded on NTA-Ni-SAM coated gold nanoparticles; also called N-10 PSMGFR peptide; MUC1* peptide on NTA-Ni-SAM nanoparticles)", "note": "[PSMGFR N-10 peptide (His-tagged)]", "values": [
      {"measurement": "binding result", "setting": "[2]", "result": "binds"}
    ]},
    {"binder": "GTINVHDVETQFNQYKTEAASRYNLTISDVSVSDVPFPFSAQSGAC([maleimide-BSA]) (not fully specified, Coated on the ELISA plate; also called PSMGFR-Cys coupled BSA; first MUC1* peptide of the sandwich ELISA)", "note": "[PSMGFR peptide bearing a C-terminal Cysteine (PSMGFR-Cys) coupled to BSA]", "values": [
      {"measurement": "binding result", "setting": "[3]", "result": "binds"}
    ]},
    {"binder": "GTINVHDVETQFNQYKTEAASRYNLTISDVSVSDVPFPFSAQSGA (also: biotinylated (position not given here), also called second MUC1* peptide with biotin)", "note": "[biotinylated PSMGFR peptide (PSMGFR-biotin)]", "values": [
      {"measurement": "binding result", "setting": "[4]", "result": "binds"}
    ]}
  ]
}
